B1: 010417-H05 (protein)
chain: MALPVTALLLPLALLLHAARPLEGKPIPNPLLGLDSTGSGEDLKNVFPPEVAVFEPSKAEIAHTQKATLVCLATGFYPDHVELSWWVNGKEVHSGVCTDPQPLKEQPALNDSRYCLSSRLRVSATFWQNPRNHFRCQVQFYGLSENDEWTQDRAKPVTQIVSAEAWGRADCGITSASYHQGVLSATILYEILLGKATLYAVLVSALVLMAMVKRKDSRGRAKRSGSGATNFSLLKQAGDVEENPGPTSMALPVTALLLPLALLLHAARPEIVLTQSPDFQSVTPKEKVTITCRASESVDTFGISFMNWFQQKPDQSPKLLIHAASNQGSGVPSRFSGSGSGTDFTLTINSLEAEDAATYYCQQSKEVPFTFGGGTKVEIKGGGGSGGGGSGGGGSEVQLVESGGGLVQPGGSLRLSCAASGFTFSSSWMNWVRQAPGKGLEWVGRIYPGDGDTNYNGKFKGRFTISRDDSKNSLYLQMNSLKTEDTAVYYCARSGFITTVLDFDYWGQGTLVTVSSTREQKLISEEDGSGIQNPDPAVYQLRDSKSSDKSVCLFTDFDSQTNVSQSKDSDVYITDKCVLDMRSMDFKSNSAVAWSNKSDFACANAFNNSIIPEDTFFPSSDVPCDVKLVEKSFETDTNLNFQNLSVIGFRILLLKVAGFNLLMTLRLWSSRAKRSGSGVKQTLNFDLLKLAGDVESNPGPSRGHMTEYKPTVRLATRDDVPRAVRTLAAAFADYPATRHTVDPDRHIERVTELQELFLTRVGLDIGKVWVADDGAAVAVWTTPESVEAGAVFAEIGPRMAELSGSRLAAQQQMEGLLAPHRPKEPAWFLATVGVSPDHQGKGLGSAVVLPGVEAAERAGVPAFLETSAPRNLPFYERLGFTVTADVEVPEGPRTWCMTRKPGA
B2: 010417-E08 (protein)
chain: MALPVTALLLPLALLLHAARPLEGKPIPNPLLGLDSTGSGEDLKNVFPPEVAVFEPSKAEIAHTQKATLVCLATGFYPDHVELSWWVNGKEVHSGVCTDPQPLKEQPALNDSRYCLSSRLRVSATFWQNPRNHFRCQVQFYGLSENDEWTQDRAKPVTQIVSAEAWGRADCGITSASYHQGVLSATILYEILLGKATLYAVLVSALVLMAMVKRKDSRGRAKRSGSGATNFSLLKQAGDVEENPGPTSTMALPVTALLLPLALLLHAARPDEIVLTQSPATLSLSPGERATLSCSASSSVSYMHWYQQKPGQAPRLLIYDTSKLASGIPARFSGSGSGTDFTLTISSLEPEDVAVYYCFQGSVYPFTFGQGTKLEIKRGGGGSGGGGSGGGGSQVQLQESGPGLVKPSQTLSLTCTVSGGSISTSGMGVGWIRQHPGKGLEWIGHIWWDDDKRYNPALKSRVTISVDTSKNQFSLKLSSVTAADTAVYYCARMELWSYYFDYWGQGTLVTVSSTREAAAKQIVLTQSPAIMSASPGEKVTISCSASSSVSYMYWYQQKPGSSPKPWIYRTSNLASGVPARFSGSGSGTSYSLTISNMEAEDAAAYYCQQYHSYPTTFGGGTKLEVKGGGGSGGGGSGGGGSEVQLVESGGGLVQPKGSLKLSCAASGFSFNTYAMNWVRQAPGKGLEWIAHIRSKSNNFATYYADSVKDRFSISRDASENILFLQMNNLKTEDTAMYYCVRQGGDFPMDYWGQGTSVTVSSTREQKLISEEDGSGIQNPDPAVYQLRDSKSSDKSVCLFTDFDSQTNVSQSKDSDVYITDKCVLDMRSMDFKSNSAVAWSNKSDFACANAFNNSIIPEDTFFPSSDVPCDVKLVEKSFETDTNLNFQNLSVIGFRILLLKVAGFNLLMTLRLWSSRAKRSGSGVKQTLNFDLLKLAGDVESNPGPSRGHMTEYKPTVRLATRDDVPRAVRTLAAAFADYPATRHTVDPDRHIERVTELQELFLTRVGLDIGKVWVADDGAAVAVWTTPESVEAGAVFAEIGPRMAELSGSRLAAQQQMEGLLAPHRPKEPAWFLATVGVSPDHQGKGLGSAVVLPGVEAAERAGVPAFLETSAPRNLPFYERLGFTVTADVEVPEGPRTWCMTRKPGA
B3: 030217-A05 (protein)
chain: MALPVTALLLPLALLLHAARPDEIVLTQSPATLSLSPGERATLSCSASSSVSYMHWYQQKPGQAPRLLIYDTSKLASGIPARFSGSGSGTDFTLTISSLEPEDVAVYYCFQGSVYPFTFGQGTKLEIKRGGGGSGGGGSGGGGSQVQLQESGPGLVKPSQTLSLTCTVSGGSISTSGMGVGWIRQHPGKGLEWIGHIWWDDDKRYNPALKSRVTISVDTSKNQFSLKLSSVTAADTAVYYCARMELWSYYFDYWGQGTLVTVSSLEGKPIPNPLLGLDSTGSGEDLKNVFPPEVAVFEPSKAEIAHTQKATLVCLATGFYPDHVELSWWVNGKEVHSGVCTDPQPLKEQPALNDSRYCLSSRLRVSATFWQNPRNHFRCQVQFYGLSENDEWTQDRAKPVTQIVSAEAWGRADCGITSASYHQGVLSATILYEILLGKATLYAVLVSALVLMAMVKRKDSRGRAKRSGSGATNFSLLKQAGDVEENPGPTSTMALPVTALLLPLALLLHAARPDIQMTQSPSSLSASVGDRVTITCKASQDVGIAVAWYQQKPGKVPKLLIYWASTRHTGVPDRFSGSGSGTDFTLTISSLQPEDVATYYCQQYSSYPYTFGQGTKVEIKGGGGSGGGGSGGGGSEVQLVESGGGLVQPGGSLRLSCAASGFDFSRYWMSWVRQAPGKGLEWIGEINPDSSTINYAPSLKDKFIISRDNAKNSLYLQMNSLRAEDTAVYYCARPDGNYWYFDVWGQGTLVTVSSTREQKLISEEDGSGIQNPDPAVYQLRDSKSSDKSVCLFTDFDSQTNVSQSKDSDVYITDKCVLDMRSMDFKSNSAVAWSNKSDFACANAFNNSIIPEDTFFPSSDVPCDVKLVEKSFETDTNLNFQNLSVIGFRILLLKVAGFNLLMTLRLWSSRAKRSGSGVKQTLNFDLLKLAGDVESNPGPSRGHMTEYKPTVRLATRDDVPRAVRTLAAAFADYPATRHTVDPDRHIERVTELQELFLTRVGLDIGKVWVADDGAAVAVWTTPESVEAGAVFAEIGPRMAELSGSRLAAQQQMEGLLAPHRPKEPAWFLATVGVSPDHQGKGLGSAVVLPGVEAAERAGVPAFLETSAPRNLPFYERLGFTVTADVEVPEGPRTWCMTRKPGA
B4: 010417-L03 (protein)
chain: MALPVTALLLPLALLLHAARPLEQKLISEEDLGSGDRPDPAVYQLRDSKSSDKSVCLFTDFDSQTNVSQSKDSDVYITDKCVLDMRSMDFKSNSAVAWSNKSDFACANAFNNSIIPEDTFFPSPESSCDVKLVEKSFETDTNLNFQNLSVIGFRILLLKVAGFNLLMTLRLWSSSSRAKRSGSGVKQTLNFDLLKLAGDVESNPGPTSMALPVTALLLPLALLLHAARPEIVLTQSPDFQSVTPKEKVTITCRASESVDTFGISFMNWFQQKPDQSPKLLIHAASNQGSGVPSRFSGSGSGTDFTLTINSLEAEDAATYYCQQSKEVPFTFGGGTKVEIKGGGGSGGGGSGGGGSEVQLVESGGGLVQPGGSLRLSCAASGFTFSSSWMNWVRQAPGKGLEWVGRIYPGDGDTNYNGKFKGRFTISRDDSKNSLYLQMNSLKTEDTAVYYCARSGFITTVLDFDYWGQGTLVTVSSTRGKPIPNPLLGLDSTGSGEDLKNVFPPEVAVFEPSEAEISHTQKATLVCLATGFYPDHVELSWWVNGKEVHSGVCTDPQPLKEQPALNDSRYCLSSRLRVSATFWQNPRNHFRCQVQFYGLSENDEWTQDRAKPVTQIVSAEAWGRADCGFTSESYQQGVLSATILYEILLGKATLYAVLVSALVLMAMVKRKDSRGRAKRSGSGATNFSLLKQAGDVEENPGPSRGHMTEYKPTVRLATRDDVPRAVRTLAAAFADYPATRHTVDPDRHIERVTELQELFLTRVGLDIGKVWVADDGAAVAVWTTPESVEAGAVFAEIGPRMAELSGSRLAAQQQMEGLLAPHRPKEPAWFLATVGVSPDHQGKGLGSAVVLPGVEAAERAGVPAFLETSAPRNLPFYERLGFTVTADVEVPEGPRTWCMTRKPGA
B5: 010417-C03 (protein)
chain: MALPVTALLLPLALLLHAARPLEGKPIPNPLLGLDSTGSGEDLKNVFPPEVAVFEPSKAEIAHTQKATLVCLATGFYPDHVELSWWVNGKEVHSGVCTDPQPLKEQPALNDSRYCLSSRLRVSATFWQNPRNHFRCQVQFYGLSENDEWTQDRAKPVTQIVSAEAWGRADCGITSASYHQGVLSATILYEILLGKATLYAVLVSALVLMAMVKRKDSRGRAKRSGSGATNFSLLKQAGDVEENPGPTSTMALPVTALLLPLALLLHAARPDEIVLTQSPATLSLSPGERATLSCSASSSVSYMHWYQQKPGQAPRLLIYDTSKLASGIPARFSGSGSGTDFTLTISSLEPEDVAVYYCFQGSVYPFTFGQGTKLEIKRGGGGSGGGGSGGGGSQVQLQESGPGLVKPSQTLSLTCTVSGGSISTSGMGVGWIRQHPGKGLEWIGHIWWDDDKRYNPALKSRVTISVDTSKNQFSLKLSSVTAADTAVYYCARMELWSYYFDYWGQGTLVTVSSTREAAAKDIQMTQSPSSLSASVGDRVTITCKASQDVGIAVAWYQQKPGKVPKLLIYWASTRHTGVPDRFSGSGSGTDFTLTISSLQPEDVATYYCQQYSSYPYTFGQGTKVEIKGGGGSGGGGSGGGGSEVQLVESGGGLVQPGGSLRLSCAASGFDFSRYWMSWVRQAPGKGLEWIGEINPDSSTINYAPSLKDKFIISRDNAKNSLYLQMNSLRAEDTAVYYCARPDGNYWYFDVWGQGTLVTVSSTREQKLISEEDGSGIQNPDPAVYQLRDSKSSDKSVCLFTDFDSQTNVSQSKDSDVYITDKCVLDMRSMDFKSNSAVAWSNKSDFACANAFNNSIIPEDTFFPSSDVPCDVKLVEKSFETDTNLNFQNLSVIGFRILLLKVAGFNLLMTLRLWSSRAKRSGSGVKQTLNFDLLKLAGDVESNPGPSRGHMTEYKPTVRLATRDDVPRAVRTLAAAFADYPATRHTVDPDRHIERVTELQELFLTRVGLDIGKVWVADDGAAVAVWTTPESVEAGAVFAEIGPRMAELSGSRLAAQQQMEGLLAPHRPKEPAWFLATVGVSPDHQGKGLGSAVVLPGVEAAERAGVPAFLETSAPRNLPFYERLGFTVTADVEVPEGPRTWCMTRKPGA

System: target antigen-expressing cell line
Assay: Jurkat NFAT-GFP assay, coculture with target cell lines expressing the respective target antigen (summary Table 10A)
Format: cell-based, human
Design: key: The signs +/−, +, 2+ etc. after the name of the cell lines indicate the relative degree of positivity on the Jurkat-NFAT-GFP assay as measured by the % GFP positive cells; +: relative degree of positivity on the Jurkat-NFAT-GFP assay as measured by the % GFP positive cells; 2+: relative degree of positivity on the Jurkat-NFAT-GFP assay as measured by the % GFP positive cells
Details: relative % GFP positive cells; for NFAT-GFP ASSAY Positive Cell lines: NALM6: SIR-expressing Jurkat-NFAT-GFP cells cocultured with NALM6; for NFAT-GFP ASSAY Positive Cell lines: RAJI: SIR-expressing Jurkat-NFAT-GFP cells cocultured with RAJI
Procedure, shortened: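 Jurkat cells carrying an NFAT-driven GFP reporter and lentivirally expressing a SIR were cocultured with antigen-bearing target cells (E:T ~1:2) for about 4–18 h. GFP induction read by flow cytometry as % GFP+ cells, scored positive and graded (+/−, +, 2+) against parental Jurkat-NFAT-GFP cells.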

Molecule | NFAT-GFP ASSAY Positive Cell lines: NALM6 | NFAT-GFP ASSAY Positive Cell lines: RAJI | NFAT-GFP ASSAY Positive Cell lines: HEL (SIR-expressing Jurkat-NFAT-GFP cells cocultured with HEL) | NFAT-GFP ASSAY Positive Cell lines: L363 (SIR-expressing Jurkat-NFAT-GFP cells cocultured with L363) | NFAT-GFP ASSAY Positive Cell lines: U266 (SIR-expressing Jurkat-NFAT-GFP cells cocultured with U266)
B1 | (+) | RAJI (2+), NALM6 | – | – | –
B2 | (+), HEL (+) | RAJI (+), NALM6 | (+), HEL (+) | – | –
B3 | (+/−), L363 (+/−), | RAJI (+), NALM6 | – | (+/−), L363 (+/−), | U266 (+/−)
B4 | RAJI (+), NALM6 (+) | RAJI (+), NALM6 (+) | – | – | –
B5 | (+/−) | RAJI (+), NALM6 | – | – | –
